{"source": "the DeepSol protein solubility set", "data": [{"assay": "soluble on expression in E. coli; label from the status in PepcDB or PDB records", "values": [{"sequence": "MQLTIKNKDLNTLYRVLDKIKITNMRANRGRAKLLAKVVDKINEYAKDETDLIDMYAAKDKDDKFVIDEHKNIKLADPAKLDELNDLLNELADEEIVIKGGEYSKRFIDFLNFLEECEDEFTSSEIILIDNILEQFEESKKGE", "soluble on expression in E. coli": "not soluble"}, {"sequence": "MQMPRRFNTYCPHCNEHQEHEVEKVRSGRQTGMKWIDRQRERNSGIGNDGKFSKVPGGDKPTKKTDLKYRCGECGKAHLREGWRAGRLEFQE", "soluble on expression in E. coli": "soluble"}, {"sequence": "MQNLRTDVLIIGGGEAGLVAGCRALTMGQKVILVEKNGYLGGATILNGSNVVGTGSDVAAQIFDNNHDTPEMLAQDVARESLETNYPALTDLMVHNIGPAIDFISKFADLHYQKAQTQTPEHSINRQIELPSASSYEFIQKVSKAFAAAGGQIMLDTRVEKLMLDNDKKLRGVIAAQKDQTVNIKARSVVLAAGGHGANQKMRGTESEGIDYYGPMTSTGDAYQFNGDLDLQTHDLGWYKLYPHGVEVEPGVAKLTTYASKQATDMGAIYVNSKGDRIVNESNVYTTFRNAILKQADKVAYLVMDERTWKKVYDLLILHDFTPEEIKSFFENKGKRPVFVKGSLESAAEQAGIVVDELVQTVKNYQGYVQDGHDHDFGRDPKYLHQFEGETFYIIEQRDRFATTLGGYSVDADNLQLVTTKNAPVANYFGAGEIIGGANGHDSMPSMMNTWGISSGYVAGAAASENAQRQATAGAAALEHHHHHH", "soluble on expression in E. coli": "soluble"}, {"sequence": "MQNVVGIDFQKSGKMEYYSPKGFDLDVGDWVVVESKRGLEMGRVKYAPLDVADQDVTLPLKEIVRLATEDDLLQYEKNEYDADEAMALCKETIQQHELEMRLVNCEYTLDKSKVIFNFTSDERVDFRKLVKVLAQKLKTRIELRQIGVRDEAKLLGGIGPCGRSLCCSTFLGDFEPVSIKMAKDQNLSLNPTKISGACGRLMCCLKYENDYYEEARAQLPDVGDAIETPEGNGKVIGLNILDISMQVKVEGLEQPLEYKMEELETLNLEHHHHHH", "soluble on expression in E. coli": "not soluble"}, {"sequence": "MQPTRRSYSNPFKAQVIQECSQPGASIASVALSHNLNANLVHKWIRLHAQKSPTLPPAFIPLAMPPAGANPHPASPNICVEIQHTRGTVKVSWPTENAAACATFLRDLLRLEHHHHHH", "soluble on expression in E. coli": "not soluble"}, {"sequence": "MQQASHPTVILGGGFAGLFTALHLSQQNYSYPIILIEQRDRFSFKPLLYELLSGELHSQQVYPRYQELLAGSKVKFVQDTVQSIDIHQQRVDTVSGQAFHYSNLILALGSKTTYFATPGAAEYAMPFTSGEQAIALRQHLRHKLYQAIQTSDSERRRLLLTVAIIGAGPSGIELACTLADLLPIWYDELGGDGSEIHVVLVNRSREILKGDVNSHLRCTVERAMKNRLIPVDFLFDAAVTKITPDGVECRRHGQIQMLQAGTIAWTAGTAPHPLLMELPVSQNRGRLLVKPTLQLSNFPEIFAAGDCATDSDHPQPPTAQVAYQQGIAIAQNLQRISQNKPTIPVQLEHHHHHH", "soluble on expression in E. coli": "not soluble"}, {"sequence": "MQQVFKKPVSLKDVQTHFCPGCHHGTFHRLVAEAMDEFGVQKKTIGVASVGCSVFLYGYFDIDVVEAPHGRAPAVATGVKRARPDAFVFTYQGDGDLAAIGTSEIIHAANRGEDITVIFVNNTTYGMTGGQMAPTTLVGQRTSTSPYGRKNEKDGSPIRMAELLAQLEGVAFSARVAVNNPKNLMDAKRQIKKAFRYQAEGKGFSFIEALSSCPTNWGMDALAANERVGTEMCA", "soluble on expression in E. coli": "not soluble"}, {"sequence": "MQRHTLPLRPLLGTLLLGLLLAGCDASRDDATALGPVPIASGDECHVCGMLIEEMPGPKGESVLPGAVRKFCSTAELFGWWLQPENRQGQARLYVHDMSQADWRHPDDARLIDATRAYYVVGIQRPGGMGATLASFADEEAATRLAAEEGGRVLRFDEIDQAVLQGVGGDHPHRHPAH", "soluble on expression in E. coli": "not soluble"}, {"sequence": "MQRIETRKVKVGSVYVGGDSRVTVQSMTNTDTRDSKKTIEQIKKLEIAGCDIVRCAVPDFDAASSLSEITKNVKLPVVADIHFDYRLALEAIKNGVSALRINPGNIGSKERVELVAKSAKEKNIPIRIGVNSGSLEKDILNKYKRVCSEALVESALNHVKILEDVNFNDIVISIKSSNVQMMIDSYRLISKEVNYPLHLGVTEAGTIWRGTIKSSIGIGTLLSEGIGDTIRVSLTGDPVEEVKVGREILKTFGYLKSGVEFISCPTCGRTSIDLIKIANEVEKRLEKTNKSIKVAVMGCVVNGPGEAREADIGIAGGKGEGLIFKKGEIIKKVKEENLVDELMREIDNMLEHHHHHH", "soluble on expression in E. coli": "not soluble"}, {"sequence": "MQSSTEKELLTNASLTVSSDFASNLEGALPSQPITQANPRAEQTLMTTYMSSTTNQADPKTFEEQFVNLLGTFTPSQAVCNVSNVDCGTYVRGPETWSSCKLGTQAIAPNASYIQIRVQDKHSTMDRMNWKGPIEDTSPLMKSLTANFL", "soluble on expression in E. coli": "not soluble"}, {"sequence": "MQTDSLSPSPNPVSPVPLNNPTSAPRYGTVIPNRIFVGGIDFKTNESDLRKFFSQYGSVKEVKIVNDRAGVSKGYGFVTFETQEDAQKILQEAEKLNYKDKKLNIGPAIRKQQVGIPRSSIMPAAGTMYLTTSTGYPYTYHNGVAYFHTPEVTSVPPPWPSRSVCSSPVMVAQPIYQQPAYHYQATTQYLPGQWQWSVPQPSASSAPFLYLQPSEVIYQPVEIAQDGGCVPPPLSLMETSVPEPYSDHGVQATYHQVYAPSAITMPAPVMQPEPIKTVWSIHY", "soluble on expression in E. coli": "soluble"}, {"sequence": "MQTSPEREAVIIRSGNSKILNTRSLMSDSRPEVLTEEDVLRLFPVLGGERRLTRRLLKALKITDINAVHARHINLRGAEFAHAALTDPAINVCYRLHGAEHLEEMRKGGAFTTVSNHPFGSLDGIMLIDIIGSVRPDYSVLVNGFLSMISCLRDSFIPVAPLKGMAGGLDSKHNVSGVKEVLNRLQNGQPVGFFPAGGISVYKGNRNRVMDSEWQASCAKMILVSQVPVYPIFFSGRNSWYFHFLGWLSWAIRTPRIPAELFNKRGHIFDVYIGDPIPPETIARFEKNPRELALFLYDRTYRLAPGHKKNK", "soluble on expression in E. coli": "not soluble"}, {"sequence": "MQVLNTKSETKQENETMQPPYIQERLKSLNDIETQLCSMLQEASQVTFIFGELKRGNESVKPQFENHVKQFYERLDKSTTQLRKEIQLLDENVGTRLLPINVNKKALGQDTEKMEEQLDLLSAILDPSKSK", "soluble on expression in E. coli": "soluble"}, {"sequence": "MQVMASPPCTTEELSPPPGGSLVEYSGGSLRVPDNPVVAFIRGDGVGPEVVESALKVVDAAVKKVYGGSRRIVWWELLAGHLAREKCGELLPKATLEGIRLARVALKGPLETPVGTGYRSLNVAIRQALDLYANIRPVRYYGQPAPHKYADRVDMVIFRENTEDVYAGIEWPHDSPEAARIRRFLAEEFGISIREDAGIGVKPISRFATRRLMERALEWALRNGNTVVTIMHKGNIMKYTEGAFMRWAYEVALEKFREHVVTEQEVQEKYGGVRPEGKILVNDRIADNMLQQIITRPWDYQVIVAPNLNGDYISDAASALVGGIGMAAGMNMGDGIAVAEPVHGTAPKYAGKDLINPSAEILSASLLIGEFMGWREVKSIVEYAIRKAVQSKKVTQDLARHMPGVQPLRTSEYTETLIAYIDEADLNEVLAGKRG", "soluble on expression in E. coli": "soluble"}, {"sequence": "MQVRIERAERIESELEEHVGDQTFVEESRFLEEDEQREGEILDQIIFVDGKRRSFVRITTDEGITGIFAELCVGAVIWDREGGTKTLFSPDKPPVKERVLGFSQSFQEEGYEEVGGILFKVVKEGKDAMQSIDLYMRSLEIEEVRKHMDKNILIVKDGPAARELPFEENVGPIGLVKNIGVTELSKEDFKKLRFLKKGKRSKMFVSSRETPLKKVGAYVKLIDGEGIRGLVRLETYVKDDNQIPYIRKVFDDLAKTLPHLTADLPIPRLPENILPIQFLEENLSYYLTDKNYMNTRLFAYIGR", "soluble on expression in E. coli": "not soluble"}, {"sequence": "MQVSPHDTSQPKQHAQSLSSASQSEAGKYTDGRETSARWLDDDSIAQRDLWNFIGDELKMGIPDNARIREQKTRYLKNKSYLHDVTLRAEPYMYWIVEQIKQRKMPMELVLLPIVESAFDPSATSSANAAGLWQIIPGTGRNYGLKQNQWYDGRRDVIASTTAALDMMQRLNTMFDGDWLLTVAAYNSGEGRVMQAMKANKAKGKPTNFWALALPRETSIYVPKMLALSDILKNSKKYGVNLPQPNESRALAKVELGQQIELTQAAEMAGLSLNKLKSYNSGYKRNVTAPNGPHYIMVPKAHVEQLKDSLADGDIAAIQPTRLEQTPASQQYKVRSGDTLSAIATRLNVSTKDLQSWNNLRSVGALKVGQTLQVAKASGTNGSITYQVRKGDSLASIAKRHGVNIADVMRWNTVINKNANIQPGDRLTLYVSSNIKPDSLEHHHHHH", "soluble on expression in E. coli": "soluble"}, {"sequence": "MRAIIIGIGQCGTKIADIFSLVDFEALAINTSKSDLEYLKHIPPERRILVGESIVGGKGVNANPLLGREAMKRDLPMVMKKISSLVGYEDVDIFFLTFGFGGGTGAGGTPVLAEALKEEYPDSLVVAIGALPLKEEGIRPTINAAITIDKLSRIVDSIIAIDNNKLKESDEDISQAYEKINYAIVERIASLLALIDVPGEQTLDASDLKFVLRAMGSFATVGYAKADATKIKSLSRLIIRSFENEGLYLDVNLESALYGLVAIHGPPEVLKAKEIFDALSELSQRIRGKQIFRGFYPDPREREVEVVTLLSGIYESKSIENIVITAKRYAREFMKAKEEGEMKKRELLKGLPDFEDIYPGEVDEG", "soluble on expression in E. coli": "soluble"}, {"sequence": "MRARIICGFRLVSETGSGSSSSDLTSASGASQWGNSSRSHWLKRWCASCSSAPEISNWQLSPASVSVPISARALLALPCGQCAGYATQFVMKKYYTAFQRGLPDAHVRRLEHHHHHH", "soluble on expression in E. coli": "not soluble"}, {"sequence": "MRDHRPTATDELIQASKLKQIQEHAKAILLINRQLQDILPKGLKTQVRAANVRGGNLVLEAASAALKMKVDYERLHILTQLRQNGFGHLISIEVRVNPELYRQSKITSEDARAANPRPPLSEHAAHVLLAIADQASDKVKKRLQSLARLAKANQKDD", "soluble on expression in E. coli": "not soluble"}, {"sequence": "MRDKTLKAILAHAEAEHPKECCGVVAQKSRVEKYFPCENLATNPTEQFHLDPTGYVEAEDWGTITAIVHSHPDATTQPSELDMAQCDNNELPWHIVSWPEGDLRTIQPRGDLPLVGREFVLGHTDCWGLIMSYFRQTHDIELKDYRVDRHWWESGTENFYMDNWYECGFREFSGPAQPGDLIIMQVSAPVANHGGILLEDGMLLHHPYGQLSQRVPYGGYWQERTMKVVRYEISQL", "soluble on expression in E. coli": "not soluble"}, {"sequence": "MRDLKIVNGDLSFIDYGILLVEGDLELAQSVFMILSIRLEEFKLDTSVGLESDNMFGKNYNEDYLKQDITEAILDQEPRINSIENIEIVRNNRQLNITVEMLSTLGDEVEVVIRA", "soluble on expression in E. coli": "not soluble"}, {"sequence": "MRDMIHNISYRLMVYGTEDEEKVIEALRNVIPGATPERESAEGYHGNPITVLRGRLDRRRALREFMEKFTEVFRGRMDELEDRFDENGNLFLRLDKQKALEGVWEPVRHGDAIHLKIKVEAYPAKREVAVENIRKILE", "soluble on expression in E. coli": "not soluble"}, {"sequence": "MREQQPDVPPAEPANDVVAPPPLMDLGPPVNPMLPLDLPYNVVREIGIAVSSKITILLLRTPNYKLD", "soluble on expression in E. coli": "not soluble"}, {"sequence": "MRERVCVSHCVLQRTVVCRPRTFVRERIRTQFKLVSLFITMPKSLRKRFVLVSIDDNIEQINAARKLRRYLTNNHLNHIFSSTPEEMKEYLDKLDSGTFNFRETAEEQKSVDPFSEANQPAIQMSSNQEILEKWARGTFAENSDALKLLLEPTNIEEDAVLDDHESENIVNNIPQLFMVNSMDAETPNDSIIVENGKEDQLDMAYCSLCKHEVETGRNRNTKIRKQTEHVLDAHPESEFLNVDIAKRYECVHCLRTLPVSKSPCEHISEHHDKTHVEIEFRDLWSNEQVSTFNSVMEKCFLRHLPVPRSRRIRNGNTWYLSEKASYRIVRGGEIIHISTVADKSKTDNGKESKQSRLDNSERGKPTRSMDSDYDIFDNQDETDSEEGARSESIDTGNKVSESEPGSLQSVIDLE", "soluble on expression in E. coli": "not soluble"}]}]}
